For nine molecules, EC50 results are on record in US20240084019A1 (OSE IMMUNOTHERAPEUTICS, published 2024).

For experiment [1], the target named is T1, Biot-C7 peptide: biotinylated NH2-PYHTLNLLELHHTAMPGSVFSLGLPLATALAIA-COOH (human, biotinylated (position not given)).
T1 construct: also called C7biot; biotinylated antigen-specific peptide
T1 peptide: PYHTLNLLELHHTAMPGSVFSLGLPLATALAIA
Nature of the experiment: activity ELISA on Biot-C7 peptide; column head printed ED50 (ng/ml).

Experiment [2] deals with T1, Biot-C7 peptide: biotinylated …. Briefly: activity ELISA on biotinylated C7 peptide; column head printed ED50 (ng/ml).
For experiment [3] the target is unchanged. Nature of the experiment: activity ELISA on Biot-C7 peptide; column head printed ED50 (ng/ml); second batch, no number.
The target is the same in experiment [4]. Nature of the experiment: activity ELISA on Biot-C7 peptide; column head printed ED50 (ng/ml); batch #170919.

Substitutions are numbered along the chain they refer to.

B1: HDLD humanized anti-CMKLR1 antibody (antibody, human IgG1, V domains shown)
VH: EVQLVESGGGLVQPGGSLRLSCAASGFTFSSYAMSWVRQAPGKGLELVATINRYGGSTYYAASVKGRFTISRDNSKNTLYLQMNSLRAEDTAVYYCPKLIYYGNEGDSWGQGTLVTVSS
VL: AIQLTQSPSSLSASVGDRVTITCRASQSVSFLHWYQQKPGKAPKRWIYDATKLTSGVPSRFSGSGSGTDFTLTISSLQPEDFATYYCQQWQSKPPLTFGGGTKVEIK
notes: Variable domains only; fused to constant fragment of human immunoglobulin (human IgG1, kappa)
Turning to B1, the results for the EC50 in experiment [1] and in experiment [2] were 0.193 µg/mL and 0.195 µg/mL, respectively.

B2: HCLD humanized anti-CMKLR1 antibody (antibody, human IgG1, V domains shown)
VH: B1 VH with A33G
VL: B1 VL
notes: as for B1
The molecule B2 had an EC50 in experiment [2] of 0.333 µg/mL.

B3: HEF-LDT52S humanized anti-CMKLR1 antibody (antibody, V domains shown)
VH: B1 VH with A49S, N52S, R53G, Y54S
VL: B1 VL with T51S
notes: fused to constant fragment of human immunoglobulin
B3 came in with an EC50 in experiment [1] of 0.126 µg/mL.

B4: HD-LDT52S humanized anti-CMKLR1 antibody (antibody, V domains shown)
VH: B1 VH
VL: B1 VL with T51S
notes: as for B3
In experiment [1], B4 returned an EC50 of 0.237 µg/mL.

B5: HDLC humanized anti-CMKLR1 antibody (antibody, human IgG1, V domains shown)
VH: B1 VH
VL: B1 VL with Q91N
notes: as for B1
In turn, B5 had an EC50 in experiment [2] of 0.197 µg/mL.

B6: HALA humanized anti-CMKLR1 antibody (VHvAv3-23*04 + VLvAv1-13*01) (antibody, human IgG1, V domains shown)
VH: B1 VH with A33G, A61P, A62D, K98R
VL: B1 VL with R24S, Q27S, L32M, A50T, F70Y, Q91N
notes: Variable domains only; also called germline antibody HALA; IGHV3-23*04 + IGKV1-13*02
Consider B6, for which the EC50 in experiment [3] came to 0.195 µg/mL; in experiment [2], 0.557 µg/mL; in experiment [4] it was 0.253 µg/mL.

B7: HCLC humanized anti-CMKLR1 antibody (antibody, human IgG1, V domains shown)
VH: B1 VH with A33G
VL: B1 VL with Q91N
notes: as for B1
With B7, a half-maximal effect in experiment [2] (EC50) was put at 0.167 µg/mL.

B8: HEF-LEF humanized anti-CMKLR1 antibody (antibody, V domains shown)
VH: B1 VH with A49S, N52S, R53G, Y54S
VL: B1 VL with W46L, T51S, T54E
notes: as for B3
B8: the EC50 in experiment [1] came to 0.183 µg/mL.

B9: anti-CMKLR1 antibody 2G1 (parental chimeric antibody) (antibody, human IgG1, V domains shown)
VH: EVQLVASGGGLVQPGGSLKLSCAASGFTFSSYGMSWVRQTPDRRLELVATINRYGGSTYYPDSVKGRFTISRDNAKNTLYLQMSSLKSEDTAMYYCPRLIYYGNEGDSWGQGTTLTVSS
VL: QIVLTQSPAIMSASPGEKVTMTCSASSSVSFMHWYQQKSGTSPKRWIYDTTKLTSGVPARFSGSGSGTFYSLTISSMEAEDAATYYCQQWNSKPPLTFGPGTKLELKR
notes: also called 2G1 wt; 2G1 WT
Turning to B9, the EC50 in experiment [1] worked out at 0.222 µg/mL; in experiment [2] it was 0.269 µg/mL.
